Reference: patent publication US20020111304A1 (SCHEPENS EYE RESEARCH INSTITUTE, published 2002)

Experiments:
Test in all cases: co-immunoprecipitation with anti-αPDGFR antibody from F cells, Western blot
[1] = target: T1, phospholipase C-γ1 (PLCγ) (UniProt Q62077 2-1302, limits assumed)
T1 construct: Endogenous protein that co-precipitates with the receptor from F cell lysates; also called phospholipase C-gamma
T1 sequence (looked up): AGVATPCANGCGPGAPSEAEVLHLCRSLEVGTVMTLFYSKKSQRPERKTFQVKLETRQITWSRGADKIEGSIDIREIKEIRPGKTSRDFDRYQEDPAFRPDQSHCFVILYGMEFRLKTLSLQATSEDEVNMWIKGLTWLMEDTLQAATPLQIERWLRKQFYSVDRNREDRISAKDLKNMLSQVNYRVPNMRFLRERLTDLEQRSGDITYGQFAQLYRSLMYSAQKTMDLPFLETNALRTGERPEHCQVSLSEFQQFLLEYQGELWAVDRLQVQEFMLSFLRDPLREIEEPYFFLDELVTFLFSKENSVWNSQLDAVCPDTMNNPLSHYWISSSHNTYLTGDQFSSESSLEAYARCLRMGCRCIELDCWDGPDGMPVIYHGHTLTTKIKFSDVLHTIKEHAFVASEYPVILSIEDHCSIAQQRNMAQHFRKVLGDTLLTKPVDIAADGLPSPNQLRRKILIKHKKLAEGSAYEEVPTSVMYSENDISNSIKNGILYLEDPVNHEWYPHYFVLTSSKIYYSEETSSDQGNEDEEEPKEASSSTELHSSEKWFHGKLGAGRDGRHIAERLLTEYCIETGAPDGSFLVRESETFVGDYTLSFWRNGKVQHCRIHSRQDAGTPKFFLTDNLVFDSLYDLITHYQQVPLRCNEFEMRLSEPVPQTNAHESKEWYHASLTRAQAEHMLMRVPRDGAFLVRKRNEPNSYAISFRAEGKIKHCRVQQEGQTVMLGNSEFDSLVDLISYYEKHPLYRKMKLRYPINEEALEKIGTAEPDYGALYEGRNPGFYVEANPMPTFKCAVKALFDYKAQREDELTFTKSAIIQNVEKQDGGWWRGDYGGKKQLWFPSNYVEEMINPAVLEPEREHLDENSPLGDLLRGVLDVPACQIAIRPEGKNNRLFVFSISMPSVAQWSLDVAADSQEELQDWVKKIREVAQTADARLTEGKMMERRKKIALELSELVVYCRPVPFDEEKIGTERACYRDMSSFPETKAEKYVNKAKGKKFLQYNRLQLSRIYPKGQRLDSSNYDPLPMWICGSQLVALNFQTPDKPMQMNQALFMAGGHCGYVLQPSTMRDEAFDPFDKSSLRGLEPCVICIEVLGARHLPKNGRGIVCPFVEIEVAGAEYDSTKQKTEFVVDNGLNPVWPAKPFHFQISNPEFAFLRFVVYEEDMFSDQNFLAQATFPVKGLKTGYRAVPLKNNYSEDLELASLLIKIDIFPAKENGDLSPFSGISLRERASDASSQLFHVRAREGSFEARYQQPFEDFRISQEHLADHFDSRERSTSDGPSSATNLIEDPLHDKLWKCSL
Description: (§1) Portions of the membrane that contained the proteins of the appropriate molecular mass were immunoblotted for PLCγ, the regulatory subunit of PI3K (p85), or SHP-2. Crude rabbit anti-p85 antibody is from Dr. A. Toker (Beth Israel Hospital/Harvard Medical School, Boston, Mass.). The monoclonal antibodies against PLCγ and SHP-2 were purchased from Upstate Biotechnology Inc.

[2] = target: T2, regulatory subunit of PI3K (p85) (UniProt P26450 2-724)
T2 construct: The catalytic subunit is not described; also called phosphoinositide 3-kinase
T2 sequence (P26450 2-724): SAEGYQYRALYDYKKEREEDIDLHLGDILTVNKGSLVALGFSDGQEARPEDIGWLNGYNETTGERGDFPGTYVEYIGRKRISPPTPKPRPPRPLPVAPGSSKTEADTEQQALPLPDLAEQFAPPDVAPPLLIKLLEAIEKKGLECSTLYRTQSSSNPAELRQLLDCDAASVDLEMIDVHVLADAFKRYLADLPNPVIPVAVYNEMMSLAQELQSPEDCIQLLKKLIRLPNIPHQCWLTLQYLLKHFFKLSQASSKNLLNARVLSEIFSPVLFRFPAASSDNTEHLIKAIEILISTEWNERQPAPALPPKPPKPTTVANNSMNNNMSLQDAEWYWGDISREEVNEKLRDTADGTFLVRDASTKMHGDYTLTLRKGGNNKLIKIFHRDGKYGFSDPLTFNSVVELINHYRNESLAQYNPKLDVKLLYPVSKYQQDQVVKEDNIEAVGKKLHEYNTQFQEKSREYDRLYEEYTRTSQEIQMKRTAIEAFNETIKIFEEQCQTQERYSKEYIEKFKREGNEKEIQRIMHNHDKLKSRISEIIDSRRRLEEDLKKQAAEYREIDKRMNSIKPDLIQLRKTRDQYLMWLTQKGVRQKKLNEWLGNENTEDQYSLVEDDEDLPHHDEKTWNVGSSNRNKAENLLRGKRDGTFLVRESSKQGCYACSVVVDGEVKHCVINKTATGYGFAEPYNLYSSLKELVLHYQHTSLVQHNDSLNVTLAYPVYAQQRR
Description: as §1

[3] = target: T3, tyrosine phosphatase SHP-2 (UniProt P35235 2-593, limits assumed)
T3 construct: Endogenous protein that co-precipitates with the receptor from F cell lysates
T3 sequence (looked up): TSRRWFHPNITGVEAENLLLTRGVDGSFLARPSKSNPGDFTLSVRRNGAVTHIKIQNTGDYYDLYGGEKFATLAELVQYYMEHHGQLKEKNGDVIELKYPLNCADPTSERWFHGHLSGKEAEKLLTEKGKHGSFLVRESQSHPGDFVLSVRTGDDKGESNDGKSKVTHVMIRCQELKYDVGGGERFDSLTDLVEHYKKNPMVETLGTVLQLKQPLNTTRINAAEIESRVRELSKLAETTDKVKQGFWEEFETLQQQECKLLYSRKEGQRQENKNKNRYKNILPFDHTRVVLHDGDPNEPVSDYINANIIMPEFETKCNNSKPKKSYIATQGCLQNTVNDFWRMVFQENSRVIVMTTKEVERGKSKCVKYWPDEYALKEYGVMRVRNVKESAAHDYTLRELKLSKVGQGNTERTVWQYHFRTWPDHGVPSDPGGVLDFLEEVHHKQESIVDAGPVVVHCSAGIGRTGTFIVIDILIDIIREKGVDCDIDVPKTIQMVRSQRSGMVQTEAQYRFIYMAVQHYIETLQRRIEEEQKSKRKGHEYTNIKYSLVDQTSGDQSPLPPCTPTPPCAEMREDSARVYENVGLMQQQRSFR
Description: as §1

Measured: binding result

B1: αPDGFR mutant F7 (Tyr to Phe substitution at 572, 574, 720, 731, 742, 988, and 1018) (receptor)
chain: QLSLPSILPNENEKVVQLNSSFSLRCFGESEVSWQYPMSEEESSDVEIRNEENNSGLFVTVLEVSSASAAHTGLYTCYYNHTQTEENELEGRHIYIYVPDPDVAFVPLGMTDYLVIVEDDDSAIIPCRTTDPETPVTLHNSEGVVPASYDSRQGFNGTFTVGPYICEATVKGKKFQTIPFNVYALKATSELDLEMEALKTVYKSGETIVVTCAVFNNEVVDLQWTYPGEVKGKGITMLEEIKVPSIKLVYTLTVPEATVKDSGDYECAARQATREVKEMKKVTISVHEKGFIEIKPTFSQLEAVNLHEVKHFVVEVRAYPPPRISWLKNNLTLIENLTEITTDVEKIQEIRYRSKLKLIRAKEEDSGHYTIVAQNEDAVKSYTFELLTQVPSSILDLVDDHHGSTGGQTVRCTAEGTPLPDIEWMICKDIKKCNNETSWTILANNVSNIITEIHSRDRSTVEGRVTFAKVEETIAVRCLAKNLLGAENRELKLVAPTLRSELTVAAAVLVLLVIVIISLIVLVVIWKQKPRYEIRWRVIESISPDGHEFIFVDPMQLPYDSRWEFPRDGLVLGRVLGSGAFGKVVEGTAYGLSRSQPVMKVAVKMLKPTARSSEKQALMSELKIMTHLGPHLNIVNLLGACTKSGPIYIITEYCFYGDLVNYLHKNRDSFLSHHPEKPKKELDIFGLNPADESTRSFVILSFENNGDFMDMKQADTTQFVPMLERKEVSKYSDIQRSLYDRPASYKKKSMLDSEVKNLLSDDNSEGLTLLDLLSFTYQVARGMEFLASKNCVHRDLAARNVLLAQGKIVKICDFGLARDIMHDSNYVSKGSTFLPVKWMAPESIFDNLYTTLSDVWSYGILLWEIFSLGGTPYPGMMVDSTFYNKIKSGYRMAKPDHATSEVYEIMVKCWNSEPEKRPSFYHLSEIVENLLPGQYKKSYEKIHLDFLKSDHPAVARMRVDSDNAFIGVTYKNEEDKLKDWEGGLDEQRLSADSGFIIPLPDIDPVPEEEDLGKRNRHSSQTSEESAIETGSSSSTFIKREDETIEDIDMMDDIGIDSSDLVEDSFL
notes: Expressed in F cells and immunoprecipitated from lysates
no binding: all assays above
